Earlier results on one substance are cited in paper PMC12537681.

As a reminder, the Kd is a measure of binding affinity in units of concentration.

The data set concerns the target Spike glycoprotein trimer (Severe acute respiratory syndrome coronavirus 2) (UniProt P0DTC2).

With TLR4 (from UniProt O00206), the Kd was 300 nM.
